Measurements as given in US20040166544A1.
pIC50, pKd: −log10 of the molar value. Values belong to the substance of their own block, whether it stands above or below them.

Assays:
[1] = target: c-Met/Fc Chimera (R&D Systems, catalog # 358-MT-100) (human) (UniProt P08581); test: competition ELISA: displacement of biotinylated HGF from plate-coated c-Met/Fc chimera, IgG, n = 2
[2] = target: biotinylated c-Met-Fc (R&D Systems, #358-MT-100/CF, 5.1 biotin per c-Met molecule) (human) (UniProt P08581); test: SPR (BIAcore), biotinylated c-Met-Fc captured on streptavidin chip, IgG as analyte, bivalent model
[3] = target: c-Met (endogenous, on human cell lines 184B5, HCT-116, DU-145 and NCI H441) (human) (UniProt P08581); test: cell-based or functional assay
[4] = target: c-Met/Fc Chimera (R&D Systems, catalog # 358-MT-100) (human) (UniProt P08581); test: SPR (BIAcore), c-Met-Fc captured on protein A CM5 chip, Fab as analyte, 1:1 Langmuir model
[5] = target: c-Met/Fc Chimera (R&D Systems, catalog # 358-MT-100) (human) (UniProt P08581); test: competition ELISA: displacement of biotinylated HGF from plate-coated c-Met/Fc chimera, Fab, n = 2

Chain of c-Met (endogenous, on human cell lines 184B5, HCT-116, DU-145 and NCI H441) (human) (P08581 25-1390): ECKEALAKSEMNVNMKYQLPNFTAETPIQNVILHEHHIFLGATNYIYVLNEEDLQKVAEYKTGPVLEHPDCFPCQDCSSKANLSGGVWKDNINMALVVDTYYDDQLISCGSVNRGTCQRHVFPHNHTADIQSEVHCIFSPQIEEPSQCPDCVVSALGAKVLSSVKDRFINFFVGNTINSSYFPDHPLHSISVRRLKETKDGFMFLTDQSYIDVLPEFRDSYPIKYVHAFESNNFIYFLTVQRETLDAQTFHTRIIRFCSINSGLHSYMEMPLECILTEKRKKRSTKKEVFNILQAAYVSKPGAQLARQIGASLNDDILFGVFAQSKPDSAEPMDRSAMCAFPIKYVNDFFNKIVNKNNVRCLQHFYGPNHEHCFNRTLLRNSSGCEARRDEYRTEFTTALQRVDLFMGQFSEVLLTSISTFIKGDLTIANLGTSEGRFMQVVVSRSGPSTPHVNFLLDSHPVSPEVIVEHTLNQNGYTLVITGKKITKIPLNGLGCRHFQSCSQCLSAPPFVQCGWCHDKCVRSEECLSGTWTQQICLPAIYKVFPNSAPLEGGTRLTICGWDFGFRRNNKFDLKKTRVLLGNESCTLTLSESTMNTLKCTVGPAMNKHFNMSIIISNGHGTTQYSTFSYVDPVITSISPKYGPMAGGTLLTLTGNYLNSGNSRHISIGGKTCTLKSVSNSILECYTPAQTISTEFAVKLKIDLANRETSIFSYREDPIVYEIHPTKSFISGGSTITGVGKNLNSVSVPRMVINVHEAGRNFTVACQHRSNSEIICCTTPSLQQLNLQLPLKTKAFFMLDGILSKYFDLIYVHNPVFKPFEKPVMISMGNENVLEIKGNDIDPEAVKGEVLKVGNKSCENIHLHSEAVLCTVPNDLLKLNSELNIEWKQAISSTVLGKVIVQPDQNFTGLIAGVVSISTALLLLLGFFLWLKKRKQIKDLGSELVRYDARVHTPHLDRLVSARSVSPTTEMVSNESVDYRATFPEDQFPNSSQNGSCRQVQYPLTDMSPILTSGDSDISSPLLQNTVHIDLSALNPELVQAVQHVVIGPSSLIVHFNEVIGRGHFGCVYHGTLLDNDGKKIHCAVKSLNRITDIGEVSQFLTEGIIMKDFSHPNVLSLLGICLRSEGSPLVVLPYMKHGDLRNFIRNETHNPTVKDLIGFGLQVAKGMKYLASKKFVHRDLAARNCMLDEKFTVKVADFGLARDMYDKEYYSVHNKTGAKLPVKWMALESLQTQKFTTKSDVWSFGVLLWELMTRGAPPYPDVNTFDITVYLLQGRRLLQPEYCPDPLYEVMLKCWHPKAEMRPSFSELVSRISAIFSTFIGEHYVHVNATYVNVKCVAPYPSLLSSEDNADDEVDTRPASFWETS
Chain of c-Met/Fc Chimera (R&D Systems, catalog # 358-MT-100) (human) (P08581 25-932, stated change not applied): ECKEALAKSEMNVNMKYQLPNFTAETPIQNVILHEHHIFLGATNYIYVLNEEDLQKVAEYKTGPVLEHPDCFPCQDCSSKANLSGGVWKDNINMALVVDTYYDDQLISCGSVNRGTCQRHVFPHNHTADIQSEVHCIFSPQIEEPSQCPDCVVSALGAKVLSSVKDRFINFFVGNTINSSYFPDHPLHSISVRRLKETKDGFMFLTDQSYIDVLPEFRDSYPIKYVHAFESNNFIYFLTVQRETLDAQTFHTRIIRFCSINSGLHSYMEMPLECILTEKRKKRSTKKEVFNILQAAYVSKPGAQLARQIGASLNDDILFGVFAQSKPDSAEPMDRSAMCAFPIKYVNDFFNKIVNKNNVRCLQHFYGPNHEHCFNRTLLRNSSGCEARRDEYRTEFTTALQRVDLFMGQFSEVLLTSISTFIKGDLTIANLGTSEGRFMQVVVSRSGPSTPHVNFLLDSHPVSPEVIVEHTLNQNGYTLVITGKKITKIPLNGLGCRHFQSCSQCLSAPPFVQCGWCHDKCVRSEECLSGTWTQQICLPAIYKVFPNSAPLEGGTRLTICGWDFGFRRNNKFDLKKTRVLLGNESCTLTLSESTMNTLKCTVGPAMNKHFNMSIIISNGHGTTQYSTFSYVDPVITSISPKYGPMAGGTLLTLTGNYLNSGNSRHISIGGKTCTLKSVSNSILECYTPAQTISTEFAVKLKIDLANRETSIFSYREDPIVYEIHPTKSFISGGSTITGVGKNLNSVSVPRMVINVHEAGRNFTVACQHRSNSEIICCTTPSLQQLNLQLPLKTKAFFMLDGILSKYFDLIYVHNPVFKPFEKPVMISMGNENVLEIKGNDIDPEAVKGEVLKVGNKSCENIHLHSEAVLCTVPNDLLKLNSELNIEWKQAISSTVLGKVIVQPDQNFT
Chain of biotinylated c-Met-Fc (R&D Systems, #358-MT-100/CF, 5.1 biotin per c-Met molecule) (human) (P08581 25-932): as the sequence (P08581 25-932, stated change not applied) above

Substance: c-Met antibody 1A3.3.13 (#HB-11894, ATCC Hybridoma), IgG
pIC50 [1]: 9.30 | pKd [2]: 8.85 | koff [2]: 0.000289 s⁻¹ | kon [2]: 210000 M⁻¹ s⁻¹ | scatter assay on DU-145 cells, mean object area, agonist (alone), 100 nM IgG; the smaller the number, the more scattering (mean object area) [3]: 305 | scatter assay on DU-145 cells, mean object area, antagonist (w/30 pM HGF), 100 nM IgG; the smaller the number, the more scattering (mean object area) [3]: 254

Substance: c-Met antibody 1A3.3.13 (#HB-11894, ATCC Hybridoma), Fab
pKd [4]: 8.20 | koff [4]: 0.00313 s⁻¹ | kon [4]: 497000 M⁻¹ s⁻¹ | pIC50 [5]: 8.17 | scatter assay on DU-145 cells, mean object area, agonist (alone), 100 nM Fab; the smaller the number, the more scattering (mean object area) [3]: 597 | scatter assay on DU-145 cells, mean object area, antagonist (w/30 pM HGF), 100 nM Fab; the smaller the number, the more scattering (mean object area) [3]: 400

Substance: c-Met antibody 5D5.11.6 (#HB-11895, ATCC Hybridoma), Fab
pKd [4]: 9.00 | koff [4]: 0.000129 s⁻¹ | kon [4]: 126000 M⁻¹ s⁻¹ | pIC50 [5]: 8.01 | scatter assay on DU-145 cells, mean object area, agonist (alone), 100 nM Fab; the smaller the number, the more scattering (mean object area) [3]: 632 | scatter assay on DU-145 cells, mean object area, antagonist (w/30 pM HGF), 100 nM Fab; the smaller the number, the more scattering (mean object area) [3]: 592

Results, then the substance that gave them:

scatter assay on DU-145 cells, mean object area, agonist (alone), 100 nM Fab; the smaller the number, the more scattering (mean object area) [3]: 592 | scatter assay on DU-145 cells, mean object area, antagonist (w/30 pM HGF), 100 nM Fab; the smaller the number, the more scattering (mean object area) [3]: 478
Substance: HB-94 (#HB-94, ATCC Hybridoma) converted into a Fab fragment, Fab isotype control

pKd [2]: 8.23 | koff [2]: 0.000406 s⁻¹ | kon [2]: 68800 M⁻¹ s⁻¹ | scatter assay on DU-145 cells, mean object area, agonist (alone), 100 nM IgG; the smaller the number, the more scattering (mean object area) [3]: 239 | scatter assay on DU-145 cells, mean object area, antagonist (w/30 pM HGF), 100 nM IgG; the smaller the number, the more scattering (mean object area) [3]: 241
Substance: c-Met antibody 5D5.11.6 (#HB-11895, ATCC Hybridoma), IgG

scatter assay on DU-145 cells, mean object area, 30 pM HGF alone, IgG series; the smaller the number, the more scattering (mean object area) [3]: 324 | scatter assay on DU-145 cells, mean object area, media alone with 30 pM HGF (no antibody or Fab), Fab series; the smaller the number, the more scattering (mean object area) [3]: 352
Substance: recombinant human HGF (rhHGF, R&D Systems) (from UniProt P14210 32-728) (ligand)

scatter assay on DU-145 cells, mean object area, agonist (alone), 100 nM, IgG column; the smaller the number, the more scattering (mean object area) [3]: 365 | scatter assay on DU-145 cells, mean object area, antagonist (w/30 pM HGF), 100 nM, IgG column; the smaller the number, the more scattering (mean object area) [3]: 199
Substance: HB94 (#HB-94, ATCC Hybridoma), IgG columns of Tables 9 and 10 (antibody)
